According to patent publication US7410639 (VEGENICS, dated 2008):

Molecular target: T1, VEGFR2-EpoR chimeric receptor (mouse VEGFR2 extracellular domain with mouse EpoR transmembrane and … (mouse, UniProt P35918 20-762; P14753 250-507, limits assumed)
T1 construct: extracellular domain;domain: transmembrane and cytoplasmic domains; Expressed on the surface of Ba/F3 cells (line Ba/F3-NYK-EpoR); also called VEGF receptor-2; Flk-1
Experiment: Ba/F3 VEGFR2-EpoR bioassay (binding inferred from proliferation)
Experimental: Recombinant VEGFDΔNΔC, and material purified by M2 affinity chromatography, was assessed using the VEGFR2 bioassay. Bioassay cells (10^4), washed to remove IL-3, were incubated with aliquots of conditioned medium from VEGF-D transfected COS cells, fraction #1 from the affinity column (void volume), or fraction #3 from the affinity column (containing VEGFDΔNΔC). All samples were tested at an initial concentration of 20% (i.e., ⅕) followed by doubling dilutions. Cells were allowed to incubate for 48 hours at 37° C. in a humidified atmosphere of 10% CO_2. Cell proliferation was quantitated by the addition of 1 μCi of ^3H-thymidine and counting the amount incorporated over a period of 4 hours.
The bioassay for the capacity of polypeptides to bind to VEGF receptor-2 is described in detail in Example 7. Aliquots of fractions eluted from the M2 affinity column, containing the VEGFDΔNΔC protein, were diluted in medium and tested in the VEGFR2 bioassay as previously described.

T1 sequence (P35918 other isoform, or with tags, fused parts or gaps mutant limits assumed): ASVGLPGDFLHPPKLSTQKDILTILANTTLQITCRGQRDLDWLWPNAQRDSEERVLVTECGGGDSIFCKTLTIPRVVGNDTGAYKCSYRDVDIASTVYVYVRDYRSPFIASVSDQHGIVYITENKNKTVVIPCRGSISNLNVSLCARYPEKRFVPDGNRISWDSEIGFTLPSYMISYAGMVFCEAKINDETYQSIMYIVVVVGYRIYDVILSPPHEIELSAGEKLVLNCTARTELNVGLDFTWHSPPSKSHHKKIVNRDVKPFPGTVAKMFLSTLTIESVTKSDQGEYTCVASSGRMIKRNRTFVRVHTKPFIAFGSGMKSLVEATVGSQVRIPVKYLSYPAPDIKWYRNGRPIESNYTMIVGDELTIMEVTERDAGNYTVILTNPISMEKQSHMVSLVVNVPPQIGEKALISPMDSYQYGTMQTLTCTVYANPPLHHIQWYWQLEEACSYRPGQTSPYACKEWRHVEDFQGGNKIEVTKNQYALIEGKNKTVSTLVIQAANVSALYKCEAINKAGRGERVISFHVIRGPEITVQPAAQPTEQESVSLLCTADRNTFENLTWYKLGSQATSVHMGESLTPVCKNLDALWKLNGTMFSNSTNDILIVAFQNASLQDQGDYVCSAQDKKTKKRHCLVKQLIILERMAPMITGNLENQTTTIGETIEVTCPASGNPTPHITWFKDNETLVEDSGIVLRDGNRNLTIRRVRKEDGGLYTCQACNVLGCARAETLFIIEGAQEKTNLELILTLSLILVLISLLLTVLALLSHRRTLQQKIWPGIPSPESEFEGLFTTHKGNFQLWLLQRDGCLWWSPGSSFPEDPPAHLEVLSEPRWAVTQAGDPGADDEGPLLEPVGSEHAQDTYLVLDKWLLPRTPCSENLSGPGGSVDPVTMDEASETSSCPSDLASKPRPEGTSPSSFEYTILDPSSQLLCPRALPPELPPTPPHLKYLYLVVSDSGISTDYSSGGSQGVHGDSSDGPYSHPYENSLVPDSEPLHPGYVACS

binding result: binds
B1: VEGFDΔNΔC (ligand)
chain: FYDIETLKVIDEEWQRTQCSPRETCVEVASELGKSTNTFFKPPCVNVFRCGGCCNEESLICMNTSTSYISKQLFEISVPLTSVPELVPVKVANHTGCKCLPTAPRHPYS
notes: also called internal VEGF-D polypeptide; fraction #3; not shown: FLAG octapeptide at the N-terminus
